Reference: patent publication US20140314780A1, “Compositions Using Antibodies Directed to GPNMB and Uses Thereof” (Celldex Therapeutics, Inc., priority 2008, published 2014)

Molecular target: T1, GPNMB (Homo sapiens, UniProt Q14956)
T1 construct: V5His; made in house
T1 sequence (Q14956 23-492): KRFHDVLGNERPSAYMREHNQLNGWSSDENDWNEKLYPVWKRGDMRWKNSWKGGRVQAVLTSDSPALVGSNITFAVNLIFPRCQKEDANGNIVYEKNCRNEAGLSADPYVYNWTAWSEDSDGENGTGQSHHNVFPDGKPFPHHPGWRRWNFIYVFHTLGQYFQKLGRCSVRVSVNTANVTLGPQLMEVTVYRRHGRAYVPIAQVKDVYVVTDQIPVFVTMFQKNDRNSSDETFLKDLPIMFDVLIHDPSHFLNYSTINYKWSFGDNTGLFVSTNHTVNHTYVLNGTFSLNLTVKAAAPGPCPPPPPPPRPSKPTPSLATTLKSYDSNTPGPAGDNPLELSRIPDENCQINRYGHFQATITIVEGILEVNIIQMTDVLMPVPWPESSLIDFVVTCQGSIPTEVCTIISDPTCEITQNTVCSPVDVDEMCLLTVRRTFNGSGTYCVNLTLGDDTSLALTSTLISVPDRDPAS
Assay: Epitope binning of anti-GPNMB antibodies (competitive binding)
Settings: six anti-GPNMB antibodies, three bins
Text: Certain antibodies, described herein were binned in accordance with the protocol described in U.S. Patent Application Publication No. 20030157730. […] Competitive binding by antibodies from […] supports antibody specificity for similar or adjacent epitopes. Non competitive binding supports antibody specificity for unique epitopes.
Three bins were created to further test the binding of six anti-GPNMB antibodies. Bin 1 included GPNMB antibodies (1.2.1), (1.10.1), and (2.22.1). Bin 2 included GPNMB antibodies (2.3.1) and (1.15.1), and Bin 3 included GPNMB antibody (2.10.1). The results of the binning assays are provided below in Tables 4 and 5.

epitope bin: Bin 1
B1: Mab2.22.1: human anti-GPNMB antibody; VH SEQ ID NO: 164, VL SEQ ID NO: 173 (antibody, listed as Homo sapiens, V domains shown)
VH: QVQLEQSGPGLVKPSQNLSLTCTVSGGSISSGGYFWSWIRQHPGKGLEWIGYIYYSGNTYYNPSLKSRVTISVDTSKNQFSLKLSSVTAADTAVYYCARDYYYDTSGFSYRYDWYYGMDVWGQGTTVTVSSA
VL: DIQLTQSPSSLSASVGDRVTITCRASQGIRNDLGWYQQKPGKAPKRLIYAASSLQNGVPSRFSGSGSGTEFTLTISSLQPEDFATYYCLQHNTYPAFGQGTKVEIKR
